In paper PMC8249616, “Structural basis of the activation of c-MET receptor” (Nature Communications, 2021):

B1: c-MET927-LZ (c-MET 1-927, GGGGS linker, GCN4 leucine zipper), tags cleaved (receptor)
chain: not shown
notes: signal peptide in the construct; linker; written here as one chain; also called c-MET-LZ; c-MET I; source: HEK293F infected with baculovirus (pEZT-BM), secreted, purified (Ni resin, SEC); not shown: Tsi3, C-terminal, cleaved; His6, C-terminal, cleaved
B2: NK1 (human HGF amino acids 31-209) (ligand, UniProt P14210 31-209, looked up)
chain: GQRKRRNTIHEFKKSAKTTLIKIDPALKIKTKKVNTADQCANRCTRNKGLPFTCKAFVFDKARKQCLWFPFNSMSSGVKKEFGHEFDLYENKDYIRNCIIGKGRSYKGTVSITKSGIKCQPWSSMIPHEHSFLPSSYRGKDLQENYCRNPRGEEGGPWCFTSNPEVRYEVCDIPQCSEV
notes: human HGF amino acids 31-209 (N and K1 domains), after an HR3C site; source: E. coli Rosetta-gami 2 (DE3), purified (Ni Sepharose, SEC); not shown: DsBC, N-terminal, cleaved; His6, N-terminal, cleaved

Legend:
[1] = biological target: T1, full-length human hepatocyte growth factor (HGF), wild type (human, UniProt P14210 32-728); test: SEC; c-MET927 or c-MET927-LZ alone and mixed with HGF in vitro (Supplementary Fig. 1); whether heparin was added is not told; conditions: both partners purified
T1 construct: signal peptide in the construct; full-length human HGF followed by an HR3C site and a His6 tag; written here as one chain; also called HGF WT; HGF I; source: HEK293F infected with baculovirus (pEZT-BM), 5% FBS in the medium, secreted, purified (cation exchange, SEC)

[2] = biological target: the molecule itself; test: as above
[3] = biological target: B2; test: cryo-EM structure; c-MET927-LZ mixed with NK1 and heparin (Tinzaparin sodium) 1:1:4, complex isolated by SEC in 20 mM Hepes pH 7.5, 100 mM NaCl; 2 mM fluorinated Fos-Choline-8 added before freezing; conditions: both partners purified
[4] = biological target: the molecule itself; test: as above

T1 sequence (P14210 32-728): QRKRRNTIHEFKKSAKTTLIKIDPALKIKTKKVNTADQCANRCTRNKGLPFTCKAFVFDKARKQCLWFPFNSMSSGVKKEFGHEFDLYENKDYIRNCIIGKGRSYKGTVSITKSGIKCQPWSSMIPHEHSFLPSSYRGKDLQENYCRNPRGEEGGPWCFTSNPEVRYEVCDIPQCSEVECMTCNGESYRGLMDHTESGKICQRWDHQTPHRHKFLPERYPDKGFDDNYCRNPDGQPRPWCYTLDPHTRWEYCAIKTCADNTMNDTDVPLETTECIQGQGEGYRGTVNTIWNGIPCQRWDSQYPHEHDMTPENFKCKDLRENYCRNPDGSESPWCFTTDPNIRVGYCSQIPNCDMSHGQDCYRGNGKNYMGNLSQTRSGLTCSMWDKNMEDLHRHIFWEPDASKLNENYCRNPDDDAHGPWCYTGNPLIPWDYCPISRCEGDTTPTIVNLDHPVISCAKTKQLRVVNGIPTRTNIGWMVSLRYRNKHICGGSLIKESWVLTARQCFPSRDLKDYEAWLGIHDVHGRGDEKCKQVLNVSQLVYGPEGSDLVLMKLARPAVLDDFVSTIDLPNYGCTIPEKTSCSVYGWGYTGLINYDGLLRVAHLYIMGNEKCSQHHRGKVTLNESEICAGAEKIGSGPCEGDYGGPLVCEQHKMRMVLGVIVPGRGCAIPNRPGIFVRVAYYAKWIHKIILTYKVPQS

## B1
[1]
  binding result: binds
[2]
  stoichiometry N: 2
[3]
  binding result: binds

## B2
[4]
  stoichiometry N: 2
